Measurements: patent US20160040149A1, “Compositions Having Dicamba Decarboxylase Activity and Methods of Use” (priority 2013, published 2016)

B1: 71 (protein, listed as Burkholderia dolosa)
chain: MARAGHRAARTRQSRPGDRTMTCSCCMSAGRRRVLGAFAALAGAPKGPRAASAAQPAAASKPTRGDATARNRHSRALLPGKASASWSATKASGSGGAFAWDDTTFTFRTPAGGLGPLPMKFIDVDARLRDMDASGVDVQALSLSVPMAYWGDRPFNAKLARAWNTAASRVHVRAPDRFVVLATLPMLDATDAIDELERASELPGVRGVYMGTNIDNRDLDDPRFAPVFARIEQLGLPVFLHPQQTVGGARLGDFYLSNLLGNPFDTAIAASHLILGGVLDRHPALHFTLPHAGGALPILVGRLDAGWTVRAETRRLAHQPSGYLRRFSYDTVSHSGPVLNFLIENVGIDRLVLGSDYCFDMGYEQPVRFLDRLDLTPDERAMVIGGNAGRLLRI
B2: 3 (protein, listed as Lactobacillus plantarum)
chain: MAKLITVEEHFESAAVTAAMRQAVGNAVLPAVSPALRQYMRDNLPSPAIMQDTQHERLAFMAQYGIDMQVLSYGNSSPQNLSPEQAVPLSQLANDELAKAVVAHPDRYAGLAVLPVGDPQAAVAELNRAVTTLGLRGVLLKGNYQNKFFDEPFFLPIFEAAAALDVPVYFHPSFIPQAVTSHYFESNQWSDVVTGILSSAGYGWHMDVGIQVIRMIASGIFDKLPGLKLISGHWGELVPLFLERLDDELTTYTDLQYPFSTYYRHNVYVTPSGILSAPQLQFMLAEMGADHLMYSIDYPYKQPETSGSFLDIADLTDEQRAQIAFGTATTLFKL
B3: 68 (protein, listed as Hoeflea phototrophica)
chain: MAIIDAHTHTLCPAVNEKVAGTIKPDSVPYQRDMSPESKEQDHTQFPELKIMFNQVERRLADMARMGIDRQVIAPAPGQQHYWAEPKLLAEISALQNDHVAELVARAPDRFAGIGTLPMTDPDAAVAEITRATRELGLRVFQIDSRVMERELSDASLDPIYAALEAAGAGLMIHPLGFSNGERLTPFFMVNSVAQPLEELLAFNHLVFGGVLDRFPKLKVYIAHGGGFAPFYIGRFDHAWKVRPEVNRLTPSAPSTYLRRIYFDTCVYRTDHIETLVRTVGADRVMLGSDYPFDMGDTDPLGLLNACQGLSDDEKATISSKVAIDFFGLET
B4: 77 (protein)
chain: MALIDLHAHAPHPGYYNQHPHWGPFFERHEDGDVKLRVGDWILTLGSPERKALVRAGKGPTVEEYQARWADPKVRLAGMDAAGQNAQVVSVPSHCYMYWAEKEFSVPFATKVNDTFAEYCSAAPDRLMFWAHAALNAPEQAALELRRACTELGAKGLVAGGANFGGLEFDSPELDPVWKVLCDLDLPMFIHGYNQSVTWGKKANDDRYETTAIVGMQYDETRCFWNLVCGGVLDRFPGLKVYITHGGGYVPYQLGRLAQCNGNLDVAHNKKPVLEYLKNNFYFDVELHEVPMRQALIDIIGADRVLYGSNFGGSDAVRHDLTEGLRLSDDDLQKIRWKNACKLLHLDPAKIGEPAKKQAVSA
modifications: Burkholderia xenovorans
B5: 78 (protein, listed as Marinobacter adhaerens)
chain: MALIDLHAHAPHPDYYDQHPHWGPAFELQSDGDIKLRVGHWVLSLGAPERKQALREAHARGETLDVQEYMAKWRDPEHRLASMDAAGQNAQVLSVPSHCYMYWAEPEFGVPFAKKVNDSLAEYCSAAPDRLMFWAHAPLNVPKEAAKEIRRACTELGAKGLVAGGSNFGGLEFDSPEMDPVWEALCDLDLPMFVHGYNQSVTWGEEANTDRYETTAIVGMNYDESKCFWYMINGGVFDRFPNLKVYITHGGGFVPYQLGRMAQTNPNLDTYHNKKPFLEYLKNFYFDVELHEVPMRQAMVEVIGADRVLYGSNFGGSDAVRHDLTDDLKLSQEDLDKIRWKNACDLLHLDPNKLGKVRG
B6: 64 (protein, listed as Achromobacter piechaudii)
chain: MAIQKIDMHAHFFPPITRQEAAALDPVNAPWLRPDADGATGQIMAGEREFRPVDATLWDPALRIEQMDRHGVDVQILCATPIMFGYTYPARPAADWAARMNDLALEHCAYAPSRLKALAQVPLQDLELACQEASRARAAGHLGVQIGNHVGPRDLDDETLVQFLIHCANNDIPVLVHPWDMMTDGRMKKWMLPWLVSMPAETQLGILSLILSGAFERIPRSLKLCFAHGGGSFAYLLGRVDNAWRHRDIIRQDCPQLPSSYTDRFYTDSAVFDPRSLRLLIDVMGEDRVLLGSDYPYPLGEQEVGRLVAHAELVPEVQQKILFRNTMTFFGLQPGLQPGLQS
B7: 2 (protein, listed as Serratia sp.)
chain: MAKIICLEEHTLDKALVMASMPAALEQAPFLSDWGKTVTDGNLPDRSRPQIEKNDLINIKGADIGRGRLDDMDVAGITMQVLSVGGFPHLISAAEGVDLNRAANDRLADAVNAHPDRFAAFATLPWAQPDSAEKELERAVKELGFKGALLNGRPSTHFLDHPDYDGLLARFNALGVPLYLHPGLPVRSVQQAYYGGFSDEVTARLSMFGWGWHHEAGIHLLRLILSGAFDKYPNLQVISGHWGEMLPFWLQRLDDSLPQAATGLRRTIAQTFKEQVYVTPSGMLTLPHFQFIYALLGAERIIFSVDYPYQTLDGVKAFIQSLPVPEEAKEAIAFRNAERLLGLTS
B8: 69 (protein, listed as Microbacterium testaceum)
chain: MATSTEGQDVTDVHAHLLMPGLHAEVERRVPDEVQAAADLELRRNGLASLQASGRMIGERFPRLTDVRARLAAMDEQGVDRQWVSPSPNHFYPWANEGLATWASGEANRLIAEHVALAPDRLVGLGVVPLQHPHLVVDALDDAVLGRGLAGVEISSFAGDVELSDERLESFWARAAELRAVVFLHPFGCSLDERLDRFYLSNTVGQPTENAVALSHLIFSGVLDRHPGLRLIAAHGGGYLPTAIGRSDRAWRVRPEARGCAHAPSTYLSKLWFDTVVHDERALRWLVEAAGADRVLLGSDFPFDMGLDDPVAFVRGAGLQDAEVSGILGGNAAELLRTRVHA
B9: 72 (protein)
chain: MADCPCCVSPKRRRLLGSVSAIAAGMMAGLPALAAQPSTAAAGTGKPLSIDIHAHYYSESFLGLLGGEGKQFGGHFFRNDDSFTFQTPAGGLGPLPMKFIDVEQRVRDMDNSGVDVQAISLSVPMVYWADRTLNAKLARAWNTAASDVHRKHPTRFVVLATLPMLNANDAIDELEFAAGLPGVRGIYMGTNINNRDLDDPLFSPIFKRIEQLNLPIFLHPQQTVGGARLADFYLSNLLGNPFDTAIAASHLILGGVLDKYPALHFSLPHAGGALPILVGRIDAGWSMRSETKRVAQKPSSYLRRFSYDTISHSGPTLDFLIRNIGADRLVLGSDYCFDMGYEQPVRFLDRLALPDDQKRMVVGGNAARLLNL
modifications: Cupriavidus necator
B10: 74 (protein, listed as Ramlibacter tataouinensis)
chain: MATVIDVHTHMFTTKWLELLKKEGGQYNIQTRPDGQQEIFRGNTPVVIPQKGHFDWKLRIQHMDQAGIDVSVVSLTCPNVYWGGEDVSVRAAREANDNVAQAQTAYPDRIRWFASLPWEYMATVIDVHTHMFTTKWLELLKKEGGQYNIQTRPDGQQEIFRGNTPVVIPQKGHFDWKLRIQHMDQAGIDVSVVSLTCPNVYWGGEDVSVRAAREANDNVAQAQTAYPDRIRWFASLPWEYPQRAVEELERSCAQGAAGVMVLANVAGRSLTDPLFAPVWAEIDRRALPVLVHPTDPPGVDLMDMTKFDLSWSVGFMFDTTLAITRMIFEGFFDRYPNLRIIASHGGGTLPYLVGRFEKGDEVELASRRQMKRKPTDYLRHIHYDCITYNLGALQYLISVVGAGQVMFGTDWPHWVHDTRGAFANTAQLPQEQTRAVRGANAQRLFKL
B11: 79 (protein)
chain: MATTTTPSTLIATLESHLTPTLAFTSPTTSPTQPALHLIPPTTLTKLRNLGPGRVKDMHMLGHSRQIISHIPVAAPPQICSRFNDAIHAATMTNTAKFSVLAVLPTDGMEAAKELARCVSKYRFVGGVIGLNRGLRINGEGWEELWGLAERLRIPIMFREMWPLAFEIVDYQHHLPYSALGPILTQLHTSHTSSPLPLVRLYLSSVFDHYPSLRLVLAHPGSLPSLVPRIESLINSIPATDKPKRSFLDVWQHNIYLTTADAQDMSSLRALLEQIPVDRVLYASNYPFEERGNELMNELRESEFLTNIEWERVAWVNAETLFNLKEAGTKEARQLTTIPSSRS
modifications: Pyrenophora teres
B12: 76 (protein, listed as Polymorphum gilvum)
chain: MAKKIDIFNHIWPEPFFKALIAHIGEMTDITMRSGAVPMMTNLDRRFEVMDMFGPDYMQVLSLASPPLEKLADPAKALELSRIGSDSLAELCQRYPERFPAFIGTAPLSNPAAVVGECRRAIEDLGAAGMQIFTNVAGKPLDLAEFEPFFEYMASAGKPVWLHPARGEAFADYQTEKRSEYEIWWTFGWPYETSAAMARLVFSRMFDKYPGLKVITHHAGGMVPFFEGRVGPGWDQMGARTTDRDLAAVRKALKRPHLDYFKEFYADTASFGSRKAIEHAIEFFGEDRVLFASDAPFDPEGGPMYIRETMRCIDSLDLTDAQRRKIYHGNATALLGLSL
B13: 75 (protein, listed as Ectocarpus siliculosus)
chain: MAKIDSYTHFACPAFMDHLEAESGHPMVFRGLFSSIPELSDIDLRIRYMDEHGIDVHCLVPLPWLECEPGLHADEGKALEACRIANDEMARVVARFPDRLIGVALIPTTTEQAMIQETTRAVKELGMAGVALFVGPTAKPPDMACFEGLYRTCEELGAVVWMHPCRPQSYADYDSYKGEGSKHQIWNTFGWIYDTSVAMVHIALAGVFRRYPGLKVVTHHHGAMVPFFTARFDTQRRNFQEVEGDDLLEDLRLFYCDTATFGESAANIQQAIDFFGKSQVLFGTDTPMDMGTRGMFTRTTIASVEALGAAPEDKESFYAGNVLDMLGERFAGISGARGAVAARPKGDSTRIAASL
B14: 70 (protein, listed as Alicyclobacillus acidocaldarius)
chain: MAIEPNRAADVHTHFLPTEVLEFLKREPRIQVDLERRAPDKEPFLTVEGRWSFELKRMFVDFEAFASAYRQAGIGLALVSPLPQLFVYHLPAEMGAQVAEVYNDALRDVLAPHRERFRPLATLPLADPTAAARELERRMDEGFVGAIVGPGVGEALIGDEAFWPLWEVADARRAVLFLHPLLHADPRAARLMLPNLVGVPWETTLAAAHLVLSGLLDRYPGARVLLAHGGGFLPYQIGRIEQGYDVWPQVRGRLQDRPTAYLRRMFYDNVLWSDAALRCLIDVVGADRVLAGSDFPFDLSAWPPRPGADVSVLAGGSGREGRLS
B15: 73 (protein, listed as Sphaerobacter thermophilus)
chain: MARIDAHAHAQPPEYLDALLASGRYESVRDAEGRIVVRERGSRFLTITPQMHHPEQRVAEMDEAGIDMQILSVTTPQVYFLQGQAAVDLARRCNDYLADIVRSYPTRFRALASVPLTADPDAAVREFVRCLDDLGMVGAIIGSNIDGRPIDDPAFDAFYAEADRRATTLFIHPMVPAGIEVMNPYALAPLVGFMFDTTLAVSRLIFSGFFERYPRVKVLVGHLGAAVPYLAGRLDIGWRSYSDCQGIPHPPTEYIRRLYLDTVSFHAPALRCALETVGPDRIVFGSDYPHVIGDVGGAIASIQQALPATTHDGVLGHTAAELFGVSA

Assay: Saturation mutagenesis of SEQ ID NO:109: dicamba decarboxylation activity of point mutants (CO2 released), fold of backbone (Tables 7, 8, Megatable 1)
Settings: decarboxylation activity (CO2 released) of point mutant vs unmutated backbone protein; backbone SEQ ID NO: 109

| Molecule | Fold Activity [fold] |
| --- | --- |
| B1 | 1.5 |
| B2 | 0.9 |
| B3 | 1.3 |
| B4 | 1.3 |
| B5 | 1.1 |
| B6 | 1.8 |
| B7 | 1.1 |
| B8 | 1.3 |
| B9 | 1.2 |
| B10 | 1.4 |
| B11 | 0.9 |
| B12 | 1.1 |
| B13 | 1.7 |
| B14 | 1.7 |
| B15 | 1.2 |
